{
  "source": "paper PMC9504884",
  "about": "“Functional Interactions of Kluyveromyces lactis Telomerase Reverse Transcriptase with the Three-Way Junction and the Template Domains of Telomerase RNA”",
  "binders": {"B1": {"name": "T + TBE (structured_RNA)", "RNA": "GGUAAGGACCAGUGCCACGAAAGUGGUACUUCAAAUCCGUACACCACAUACCUAAUCAAAACCG"}},
  "experiment_in_all_cases": "EMSA; 1 nM RNA, tRNA competitor; 25 mM Tris-HCl pH 7.5, 50 mM KCl, 1 mM MgCl2, 1 mM DTT, 10% glycerol, 0.1% Triton, 0.5 mg/mL BSA, 1.7 ng/uL yeast tRNA, 1 nM RNA probe; 15 min on ice then 10 min room temperature; gel at 6 C",
  "key": {"klTRBD klEst2 171-422": {"molecular_target": "T1, klTRBD klEst2 171-422 (Kluyveromyces lactis, UniProt Q6CSS0 171-422)", "T1 sequence": "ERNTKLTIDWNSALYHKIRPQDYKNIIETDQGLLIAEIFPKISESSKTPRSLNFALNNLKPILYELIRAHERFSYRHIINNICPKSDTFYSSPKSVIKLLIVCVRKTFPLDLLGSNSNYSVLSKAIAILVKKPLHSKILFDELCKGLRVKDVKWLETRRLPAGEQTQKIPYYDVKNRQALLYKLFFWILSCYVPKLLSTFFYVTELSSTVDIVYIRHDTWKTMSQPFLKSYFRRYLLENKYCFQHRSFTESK", "details": "protein: recombinant; tags: N-terminal His-SUMO, TEV-cleaved; label: 5'-32P when probe; hairpin (TBE) with template"}, "[1]": {"molecular_target": "T2, klEst2 full-length (TERT) (Kluyveromyces lactis, UniProt Q6CSS0 1-861)", "T2 sequence": "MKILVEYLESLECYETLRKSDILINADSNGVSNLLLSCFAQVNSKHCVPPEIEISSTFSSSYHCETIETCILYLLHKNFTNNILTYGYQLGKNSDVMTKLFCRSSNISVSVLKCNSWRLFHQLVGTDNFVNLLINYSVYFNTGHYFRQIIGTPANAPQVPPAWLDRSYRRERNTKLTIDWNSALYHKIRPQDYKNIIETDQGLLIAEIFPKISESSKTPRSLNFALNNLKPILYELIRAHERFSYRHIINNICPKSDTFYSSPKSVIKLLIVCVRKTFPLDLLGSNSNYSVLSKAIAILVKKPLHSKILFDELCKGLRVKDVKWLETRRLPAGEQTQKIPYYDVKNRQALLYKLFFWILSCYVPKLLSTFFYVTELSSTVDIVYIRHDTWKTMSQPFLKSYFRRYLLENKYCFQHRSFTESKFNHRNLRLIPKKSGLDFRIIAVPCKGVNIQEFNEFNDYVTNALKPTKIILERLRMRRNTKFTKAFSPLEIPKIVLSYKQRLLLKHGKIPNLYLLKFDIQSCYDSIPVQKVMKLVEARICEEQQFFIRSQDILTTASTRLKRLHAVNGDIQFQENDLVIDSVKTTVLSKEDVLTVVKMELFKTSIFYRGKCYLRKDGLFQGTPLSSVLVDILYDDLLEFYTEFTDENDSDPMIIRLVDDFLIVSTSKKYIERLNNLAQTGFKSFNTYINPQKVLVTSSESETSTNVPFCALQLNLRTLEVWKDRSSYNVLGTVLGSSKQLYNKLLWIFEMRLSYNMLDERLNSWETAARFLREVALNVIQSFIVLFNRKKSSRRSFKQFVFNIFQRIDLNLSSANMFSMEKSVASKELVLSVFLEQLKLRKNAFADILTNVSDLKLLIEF", "details": "protein: recombinant; tags: expressed in E. coli; His-SUMO tag described for the TRBD constructs, tag of full-length not clearly stated; label: 5'-32P when probe; hairpin (TBE) with template"}, "klTRBD klEst2 171-404": {"molecular_target": "T3, klTRBD klEst2 171-404 (Kluyveromyces lactis, UniProt Q6CSS0 171-404)", "T3 sequence": "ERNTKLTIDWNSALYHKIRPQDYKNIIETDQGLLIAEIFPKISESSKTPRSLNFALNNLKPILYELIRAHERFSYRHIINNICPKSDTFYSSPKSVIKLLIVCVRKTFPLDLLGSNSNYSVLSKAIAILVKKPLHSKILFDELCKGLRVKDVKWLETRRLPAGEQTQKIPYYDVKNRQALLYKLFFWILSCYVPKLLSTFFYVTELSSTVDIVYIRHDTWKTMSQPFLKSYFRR", "details": "protein: recombinant; tags: N-terminal His-SUMO, TEV-cleaved; label: 5'-32P when probe; hairpin (TBE) with template"}},
  "data": [
    {"binder": "B1", "values": [
      {"measurement": "binding result", "setting": "klTRBD klEst2 171-422", "value": "no binding"},
      {"measurement": "binding result", "setting": "[1]", "value": "binds"},
      {"measurement": "binding result", "setting": "klTRBD klEst2 171-404", "value": "no binding"}
    ]}
  ]
}
